# Experimental data: article doi:10.1101/2023.12.05.570295
# Biological target: mKate2-K67R/R197H, named Diogenes
substance,measurement,value
"mKate2-K67R/R197H, named Diogenes",OSER assay in live HeLa cells (CytERM fusion): whorl-free cells,87%
